According to patent US20220281982A1:

Molecular target: NKG2D (human) (UniProt P26718)
Assay: cell-based or functional assay

Chain of UniProt P26718 (P26718 whole entry): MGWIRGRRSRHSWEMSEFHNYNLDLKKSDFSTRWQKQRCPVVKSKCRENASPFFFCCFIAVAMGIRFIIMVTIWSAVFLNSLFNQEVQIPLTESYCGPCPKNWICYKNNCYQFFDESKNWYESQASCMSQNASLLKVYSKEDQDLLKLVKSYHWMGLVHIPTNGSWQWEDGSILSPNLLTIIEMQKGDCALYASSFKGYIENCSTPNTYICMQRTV

B1: anti-NKG2D-anti-CS1 bispecific antibody (bispecific antibody, part only; not given: anti-CS1 scFv and linkers, part only)
chain, part: QVQLVESGGGLVKPGGSLRLSCAASGFTFSSYGMHWVRQAPGKGLEWVAFIRYDGSNKYYADSVKGRFTISRDNSKNTLYLQMNSLRAEDTAVYYCAKDRGLGDGTYFDYWGQGTTVTVSSQSALTQPASVSGSPGQSITISCSGSSSNIGNNAVNWYQQLPGKAPKLLIYYDDLLPSGVSDRFSGSKSGTSAFLAISGLQSEDEADYYCAAWDDSLNGPVFGGGTKLTVLPSGQAGAAASESLFVSNHAYHHHHHH
B1 was tested, and the Ki67 expression of T cells cultured without IL-2 was 80%.
